Results published in PMC11176775 (2024).
Values belong to the binder of their own block, whether it stands above or below them.

Biological target: Apurinic/apyrimidinic-endonuclease 1 (UniProt P27695 1-318)
Assay: SPR

Apurinic/apyrimidinic-endonuclease 1, sequence (P27695 whole entry): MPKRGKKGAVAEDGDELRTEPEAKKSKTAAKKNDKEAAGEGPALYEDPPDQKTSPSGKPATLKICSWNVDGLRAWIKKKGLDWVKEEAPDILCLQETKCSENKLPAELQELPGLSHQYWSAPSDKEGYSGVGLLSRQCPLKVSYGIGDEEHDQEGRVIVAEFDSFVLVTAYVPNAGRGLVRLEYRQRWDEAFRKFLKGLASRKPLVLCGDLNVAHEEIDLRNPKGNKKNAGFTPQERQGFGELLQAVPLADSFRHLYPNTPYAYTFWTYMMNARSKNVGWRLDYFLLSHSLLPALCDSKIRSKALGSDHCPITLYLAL

Kd: 4.9 nM
B1: LIGIIIα▵ZnF (170–922 amino acids) (domain or fragment)
chain: RHKDCLLREFRKLCAMVADNPSYNTKTQIIQDFLRKGSAGDGFHGDVYLTVKLLLPGVIKTVYNLNDKQIVKLFSRIFNCNPDDMARDLEQGDVSETIRVFFEQSKSFPPAAKSLLTIQEVDEFLLRLSKLTKEDEQQQALQDIASRCTANDLKCIIRLIKHDLKMNSGAKHVLDALDPNAYEAFKASRNLQDVVERVLHNAQEVEKEPGQRRALSVQASLMTPVQPMLAEACKSVEYAMKKCPNGMFSEIKYDGERVQVHKNGDHFSYFSRSLKPVLPHKVAHFKDYIPQAFPGGHSMILDSEVLLIDNKTGKPLPFGTLGVHKKAAFQDANVCLFVFDCIYFNDVSLMDRPLCERRKFLHDNMVEIPNRIMFSEMKRVTKALDLADMITRVIQEGLEGLVLKDVKGTYEPGKRHWLKVKKDYLNEGAMADTADLVVLGAFYGQGSKGGMMSIFLMGCYDPGSQKWCTVTKCAGGHDDATLARLQNELDMVKISKDPSKIPSWLKVNKIYYPDFIVPDPKKAAVWEITGAEFSKSEAHTADGISIRFPRCTRIRDDKDWKSATNLPQLKELYQLSKEKADFTVVAGDEGSSTTGGSSEENKGPSGSAVSRKAPSKPSASTKKAEGKLSNSNSKDGNMQTAKPSAMKVGEKLATKSSPVKVGEKRKAADETLCQTKVLLDIFTGVRLYLPPSTPDFSRLRRYFVAFDGDLVQEFDMTSATHVLGSRDKNPAAQQVSPEWIWACIRKRRLVAPC

Kd: 1050 nM
B2: LIGIIIα▵BRCT (1–755 amino acids) (domain or fragment)
chain: MAEQRFCVDYAKRGTAGCKKCKEKIVKGVCRIGKVVPNPFSESGGDMKEWYHIKCMFEKLERARATTKKIEDLTELEGWEELEDNEKEQITQHIADLSSKAAGTPKKKAVVQAKLTTTGQVTSPVKGASFVTSTNPRKFSGFSAKPNNSGEAPSSPTPKRSLSSSKCDPRHKDCLLREFRKLCAMVADNPSYNTKTQIIQDFLRKGSAGDGFHGDVYLTVKLLLPGVIKTVYNLNDKQIVKLFSRIFNCNPDDMARDLEQGDVSETIRVFFEQSKSFPPAAKSLLTIQEVDEFLLRLSKLTKEDEQQQALQDIASRCTANDLKCIIRLIKHDLKMNSGAKHVLDALDPNAYEAFKASRNLQDVVERVLHNAQEVEKEPGQRRALSVQASLMTPVQPMLAEACKSVEYAMKKCPNGMFSEIKYDGERVQVHKNGDHFSYFSRSLKPVLPHKVAHFKDYIPQAFPGGHSMILDSEVLLIDNKTGKPLPFGTLGVHKKAAFQDANVCLFVFDCIYFNDVSLMDRPLCERRKFLHDNMVEIPNRIMFSEMKRVTKALDLADMITRVIQEGLEGLVLKDVKGTYEPGKRHWLKVKKDYLNEGAMADTADLVVLGAFYGQGSKGGMMSIFLMGCYDPGSQKWCTVTKCAGGHDDATLARLQNELDMVKISKDPSKIPSWLKVNKIYYPDFIVPDPKKAAVWEITGAEFSKSEAHTADGISIRFPRCTRIRDDKDWKSATNLPQLKELYQLSKEKADFTVVA
